The values below come from doi:10.1101/2024.06.13.598862 (bioRxiv, 2024).

The assay addresses full-length human tau, null cysteine variant (C291S, C322S) (human, UniProt P10636-8 1-441, C291S | C322S). Put plainly: co-phase separation.

B1: Ydj1, yeast Hsp40 (natural protein, UniProt P25491 1-409, looked up)
chain: MVKETKFYDILGVPVTATDVEIKKAYRKCALKYHPDKNPSEEAAEKFKEASAAYEILSDPEKRDIYDQFGEDGLSGAGGAGGFPGGGFGFGDDIFSQFFGAGGAQRPRGPQRGKDIKHEISASLEELYKGRTAKLALNKQILCKECEGRGGKKGAVKKCTSCNGQGIKFVTRQMGPMIQRFQTECDVCHGTGDIIDPKDRCKSCNGKKVENERKILEVHVEPGMKDGQRIVFKGEADQAPDVIPGDVVFIVSERPHKSFKRDGDDLVYEAEIDLLTAIAGGEFALEHVSGDWLKVGIVPGEVIAPGMRKVIEGKGMPIPKYGGYGNLIIKFTIKFPENHFTSEENLKKLEEILPPRIVPAIPKKATVDECVLADFDPAKYNRTRASRGGANYDSDEEEQGGEGVQCASQ
B1: the binding result is recorded as “binds”.
